The results in this text go back to the Human Domainome abundance scans (Beltran et al. 2025).

± gives the uncertainty stated by the source.

To fix the notation:
B1: POU domain, class 3, transcription factor 3, residues 320 to 388; numbered along this chain, P20264 (parent)
chain: DDLEQFAKQFKQRRIKLGFTQADVGLALGTLYGNVFSQTTICRFEALQLSFKNMCKLKPLLNKWLEEAD

In the series the parent is B1. Put plainly: abundance fitness (aPCA) (normalised: wild type 0, dead -1); higher = more abundant; growth selection in yeast, the domain comes from the species named. The note with it: Homo sapiens.
In the case of DVLEQFAKQFKQRRIKLGFTQADVGLALGTLYGNVFSQTTICRFEALQLSFKNMCKLKPLLNKWLEEAD [D2V], the abundance fitness is -0.95 ± 0.5. For DQLEQFAKQFKQRRIKLGFTQADVGLALGTLYGNVFSQTTICRFEALQLSFKNMCKLKPLLNKWLEEAD [D2Q], the abundance fitness is -0.159 ± 0.13.

Turning to DGLEQFAKQFKQRRIKLGFTQADVGLALGTLYGNVFSQTTICRFEALQLSFKNMCKLKPLLNKWLEEAD [D2G], the abundance fitness is -0.224 ± 0.081. The result for DRLEQFAKQFKQRRIKLGFTQADVGLALGTLYGNVFSQTTICRFEALQLSFKNMCKLKPLLNKWLEEAD [D2R] reads -0.176 ± 0.089; that for DLLEQFAKQFKQRRIKLGFTQADVGLALGTLYGNVFSQTTICRFEALQLSFKNMCKLKPLLNKWLEEAD [D2L], -0.272 ± 0.14. With DELEQFAKQFKQRRIKLGFTQADVGLALGTLYGNVFSQTTICRFEALQLSFKNMCKLKPLLNKWLEEAD [D2E] the figure was -0.031 ± 0.049; with DSLEQFAKQFKQRRIKLGFTQADVGLALGTLYGNVFSQTTICRFEALQLSFKNMCKLKPLLNKWLEEAD [D2S], -0.119 ± 0.3; with DWLEQFAKQFKQRRIKLGFTQADVGLALGTLYGNVFSQTTICRFEALQLSFKNMCKLKPLLNKWLEEAD [D2W], -0.111 ± 0.13. With DILEQFAKQFKQRRIKLGFTQADVGLALGTLYGNVFSQTTICRFEALQLSFKNMCKLKPLLNKWLEEAD [D2I] the figure was -0.238 ± 0.15.

In the case of DTLEQFAKQFKQRRIKLGFTQADVGLALGTLYGNVFSQTTICRFEALQLSFKNMCKLKPLLNKWLEEAD [D2T], the abundance fitness amounted to 0.029 ± 0.13. The result for DALEQFAKQFKQRRIKLGFTQADVGLALGTLYGNVFSQTTICRFEALQLSFKNMCKLKPLLNKWLEEAD [D2A] reads 0.107 ± 0.16. The result for DKLEQFAKQFKQRRIKLGFTQADVGLALGTLYGNVFSQTTICRFEALQLSFKNMCKLKPLLNKWLEEAD [D2K] reads 0.034 ± 0.12; that for DPLEQFAKQFKQRRIKLGFTQADVGLALGTLYGNVFSQTTICRFEALQLSFKNMCKLKPLLNKWLEEAD [D2P], -0.339 ± 0.23. For DMLEQFAKQFKQRRIKLGFTQADVGLALGTLYGNVFSQTTICRFEALQLSFKNMCKLKPLLNKWLEEAD [D2M], the abundance fitness was -0.252 ± 0.14. With NDLEQFAKQFKQRRIKLGFTQADVGLALGTLYGNVFSQTTICRFEALQLSFKNMCKLKPLLNKWLEEAD [D1N] the figure was 0.529 ± 0.33; with DDLEQFMKQFKQRRIKLGFTQADVGLALGTLYGNVFSQTTICRFEALQLSFKNMCKLKPLLNKWLEEAD [A7M], -0.737 ± 0.19; with DDLEQFRKQFKQRRIKLGFTQADVGLALGTLYGNVFSQTTICRFEALQLSFKNMCKLKPLLNKWLEEAD [A7R], -0.69 ± 0.15. In the case of DDLEQFLKQFKQRRIKLGFTQADVGLALGTLYGNVFSQTTICRFEALQLSFKNMCKLKPLLNKWLEEAD [A7L], the abundance fitness is -0.908 ± 0.36. Take DDLEQFTKQFKQRRIKLGFTQADVGLALGTLYGNVFSQTTICRFEALQLSFKNMCKLKPLLNKWLEEAD [A7T]: the abundance fitness was -0.069 ± 0.24. The result for DDLEQFIKQFKQRRIKLGFTQADVGLALGTLYGNVFSQTTICRFEALQLSFKNMCKLKPLLNKWLEEAD [A7I] reads -0.057 ± 0.11; that for DDLEQFCKQFKQRRIKLGFTQADVGLALGTLYGNVFSQTTICRFEALQLSFKNMCKLKPLLNKWLEEAD [A7C], -0.198 ± 0.065. The result for DDLEQFDKQFKQRRIKLGFTQADVGLALGTLYGNVFSQTTICRFEALQLSFKNMCKLKPLLNKWLEEAD [A7D] reads -0.694 ± 0.27; that for DDLEQFSKQFKQRRIKLGFTQADVGLALGTLYGNVFSQTTICRFEALQLSFKNMCKLKPLLNKWLEEAD [A7S], 0.117 ± 0.11. With DDLEQFQKQFKQRRIKLGFTQADVGLALGTLYGNVFSQTTICRFEALQLSFKNMCKLKPLLNKWLEEAD [A7Q], the abundance fitness was -0.703 ± 0.23. The result for DDLEQFPKQFKQRRIKLGFTQADVGLALGTLYGNVFSQTTICRFEALQLSFKNMCKLKPLLNKWLEEAD [A7P] reads -0.722 ± 0.32. With DDLEQFWKQFKQRRIKLGFTQADVGLALGTLYGNVFSQTTICRFEALQLSFKNMCKLKPLLNKWLEEAD [A7W] the figure was -0.87 ± 0.31.

DDLEQFVKQFKQRRIKLGFTQADVGLALGTLYGNVFSQTTICRFEALQLSFKNMCKLKPLLNKWLEEAD [A7V]: the abundance fitness is -0.065 ± 0.068. The result for DDLEQFGKQFKQRRIKLGFTQADVGLALGTLYGNVFSQTTICRFEALQLSFKNMCKLKPLLNKWLEEAD [A7G] reads -0.478 ± 0.11; that for DDLEQFFKQFKQRRIKLGFTQADVGLALGTLYGNVFSQTTICRFEALQLSFKNMCKLKPLLNKWLEEAD [A7F], -0.642 ± 0.2; that for DDLEQFAHQFKQRRIKLGFTQADVGLALGTLYGNVFSQTTICRFEALQLSFKNMCKLKPLLNKWLEEAD [K8H], -0.306 ± 0.21. With DDLEQFAMQFKQRRIKLGFTQADVGLALGTLYGNVFSQTTICRFEALQLSFKNMCKLKPLLNKWLEEAD [K8M] the figure was -0.106 ± 0.14; with DDLEQFALQFKQRRIKLGFTQADVGLALGTLYGNVFSQTTICRFEALQLSFKNMCKLKPLLNKWLEEAD [K8L], 0.022 ± 0.07. DDLEQFAEQFKQRRIKLGFTQADVGLALGTLYGNVFSQTTICRFEALQLSFKNMCKLKPLLNKWLEEAD [K8E]: the abundance fitness was -0.019 ± 0.14.

In the case of DDLEQFATQFKQRRIKLGFTQADVGLALGTLYGNVFSQTTICRFEALQLSFKNMCKLKPLLNKWLEEAD [K8T], the abundance fitness was -0.475 ± 0.24. For DDLEQFASQFKQRRIKLGFTQADVGLALGTLYGNVFSQTTICRFEALQLSFKNMCKLKPLLNKWLEEAD [K8S], the abundance fitness is -0.738 ± 0.23. With DDLEQFAQQFKQRRIKLGFTQADVGLALGTLYGNVFSQTTICRFEALQLSFKNMCKLKPLLNKWLEEAD [K8Q] the figure was -0.061 ± 0.099. In the case of DDLEQFAGQFKQRRIKLGFTQADVGLALGTLYGNVFSQTTICRFEALQLSFKNMCKLKPLLNKWLEEAD [K8G], the abundance fitness was -0.561 ± 0.14. With DDLEQFADQFKQRRIKLGFTQADVGLALGTLYGNVFSQTTICRFEALQLSFKNMCKLKPLLNKWLEEAD [K8D] the figure was -0.705 ± 0.48. With DDLEQFAAQFKQRRIKLGFTQADVGLALGTLYGNVFSQTTICRFEALQLSFKNMCKLKPLLNKWLEEAD [K8A] the figure was 0.001 ± 0.11. The result for DDLEQFAVQFKQRRIKLGFTQADVGLALGTLYGNVFSQTTICRFEALQLSFKNMCKLKPLLNKWLEEAD [K8V] reads -0.424 ± 0.11; that for DDLEQFAFQFKQRRIKLGFTQADVGLALGTLYGNVFSQTTICRFEALQLSFKNMCKLKPLLNKWLEEAD [K8F], -0.439 ± 0.33; that for DDLEQFAIQFKQRRIKLGFTQADVGLALGTLYGNVFSQTTICRFEALQLSFKNMCKLKPLLNKWLEEAD [K8I], 0.162 ± 0.33.
